From publication PMC4585835, “A novel stearic acid-modified hirudin peptidomimetic with improved pharmacokinetic properties and anticoagulant activity” (Scientific Reports, 2015) come the findings set out here.

The assay concerns the target Rat thrombin (rat). Put plainly: enzyme inhibition kinetics (thrombin-catalysed hydrolysis of Chromozym TH).

Take Hirulog-1 (peptide): the Ki (commonly the equilibrium dissociation constant of an inhibitor or competing ligand from its target) was 20.5 nM.
